Article doi:10.1101/2023.12.08.570755

Molecular target: activation domain of SRC-3 (ACTR), labelled with AlexaFluor 647, with a ssDNA handle
Assay: FRET or BRET

most likely lifetime of the intermediate state (transient encounter complex), τi: 96 μs
Substance: nuclear-coactivator binding domain of the CBP/p300 transcription factor (NCBD), labelled with LD750 (domain or fragment)
